The target in series [1] is T1, MuA transposase (UniProt P07636 P07636:1-663). Description: EMSA; transposome assembly pH 6.0, 10% DMSO, 30 C 1 h; also fragments lambda DNA (FIG. 5A). Particulars: chain copies: 4 (inferred); 5' overhang on non-transferred strand. How it is done:
Analysis was carried out on 2% agarose gel containing 0.5 μg/mL Ethidium bromide and 87 μg/mL BSA and heparin. 5 μL of each loaded sample contains 2 μL of each transposome complex, 1 μL 6× TriTrack DNA Loading Dye (Thermo Scientific, Cat. No. R1161) and 2 μL of water. GeneRuler Low Range DNA Ladder (Thermo Scientific, Cat. No. SM1193) was used.
MuA transposomes were formed in 30 mM Tris-HCl, pH 6.0, 10% (v/v) glycerol, 0.005% (w/v) Triton X-100, 30 mM NaCl, 0.02 mM EDTA, and 10% DMSO. The complex assembly reaction contained equimolar ratio of transposon end (11.2 μM) and MuA transposase (1.65 mg/mL). Components were well mixed and incubated for one hour at 30° C. After incubation, the complex assembly mix was diluted with dilution buffer (88.0% glycerol, 314.5 mM NaCl, and 2.83 mM EDTA) to the final MuA concentration of 0.919 mg/mL. Complexed MuA transposome was stored at −70° C. for at least 16 hours before use.
Complex assembly efficiency was evaluated using an electrophoretic mobility shift assay (EMSA) on a 2% agarose gel containing 0.5 μg/mL ethidium bromide and 87 μg/mL BSA and heparin. Activity was evaluated by fragmenting 100 ng Escherichia virus lambda genomic DNA with 1.5 μL MuA complex in 30 μL of 1× Fragmentation Reaction Buffer (Thermo Scientific™ MuSeek™ Library Preparation Kit, Illumina™ compatible, Cat. No. K1361). […]
On the technique in general: In EMSA bound probe runs differently from free probe, usually more slowly.

The target of series [2] is T1, MuA transposase. Description: EMSA; stable transposome; DMSO, 30 C 1 h; active (FIG. 9). Particulars: chain copies: 4 (inferred); 5' overhang. As to the method:
FIG. 8 provides EMSA analysis of MuA transposomes that all contain individual unique sequences. Analysis was carried out on 2% agarose gel containing 0.5 μg/mL Ethidium bromide and 87 μg/mL BSA and heparin. 5 μL of each loaded sample contains 2 μL of each transposome complex, 1 μL 6× TriTrack DNA Loading Dye (Thermo Scientific, Cat. No. R1161), and 2 μL of water. GeneRuler Low Range DNA Ladder (Thermo Scientific, Cat. No. SM1193) marker was used.
MuA transposomes were formed in 1× Complex Assembly Buffer with DMSO. The complex assembly reaction contained equimolar ratio of transposon end (9.3 μM) and MuA transposase (1.65 mg/mL). Components were well-mixed and placed for incubated for one hour at 30° C. After incubation, the complex assembly mix was diluted with dilution buffer (88.0% glycerol, 314.5 mM NaCl, and 2.83 mM EDTA) to the final MuA concentration of 0.919 mg/mL. Complexed MuA transposome was stored at −70° C. for at least 16 hours before use.

Series [3] deals with T1, MuA transposase. Description: EMSA; 8 substitutions (1 sensitive); active (FIG. 13B). Particulars: chain copies: 4 (inferred); 5' overhang. How it is done:
(§1) MuA transposomes were formed in 1× Complex Assembly Buffer with DMSO. Complex assembly reaction contained equimolar ratio of transposon end (9.3 μM) and MuA transposase (1.65 mg/mL). Components were well-mixed and incubated for one hour at 30° C. After incubation, the complex assembly mix was diluted with dilution buffer (88.0% glycerol, 314.5 mM NaCl, and 2.83 mM EDTA) to the final MuA concentration of 0.919 mg/mL. Complexed MuA transposome was stored at −70° C. for at least 16 hours before use.
(§2) Complex assembly efficiency was evaluated using an electrophoretic mobility shift assay (EMSA) on a 2% agarose gel containing 0.5 μg/mL Ethidium bromide and 87 μg/mL BSA and heparin. Activity was evaluated by fragmenting 100 ng Escherichia virus lambda genomic DNA with 1.5 μL MuA complex in 1× Fragmentation Reaction Buffer (Thermo Scientific™ MuSeek™ Library Preparation Kit, Illumina™ compatible, Cat. No. K1361). Fragmentation was carried out for 5 minutes at 30° C., then stopped by adding 4.4% SDS solution.

In series [4] the target is T1, MuA transposase. Description: EMSA; 13 substitutions (3 sensitive); active (FIG. 13A). The note with it: chain copies: 4 (inferred); 5' overhang. As to the method:
as §1, §2

Series [5] deals with T1, MuA transposase. Description: EMSA; 8 substitutions (1 sensitive); active (FIG. 13C). The note with it: chain copies: 4 (inferred); 5' overhang. As to the method:
as §1, §2

Substitutions are numbered along the chain they refer to.

T1 sequence (P07636 whole entry, the tested form may be a part, one chain of several): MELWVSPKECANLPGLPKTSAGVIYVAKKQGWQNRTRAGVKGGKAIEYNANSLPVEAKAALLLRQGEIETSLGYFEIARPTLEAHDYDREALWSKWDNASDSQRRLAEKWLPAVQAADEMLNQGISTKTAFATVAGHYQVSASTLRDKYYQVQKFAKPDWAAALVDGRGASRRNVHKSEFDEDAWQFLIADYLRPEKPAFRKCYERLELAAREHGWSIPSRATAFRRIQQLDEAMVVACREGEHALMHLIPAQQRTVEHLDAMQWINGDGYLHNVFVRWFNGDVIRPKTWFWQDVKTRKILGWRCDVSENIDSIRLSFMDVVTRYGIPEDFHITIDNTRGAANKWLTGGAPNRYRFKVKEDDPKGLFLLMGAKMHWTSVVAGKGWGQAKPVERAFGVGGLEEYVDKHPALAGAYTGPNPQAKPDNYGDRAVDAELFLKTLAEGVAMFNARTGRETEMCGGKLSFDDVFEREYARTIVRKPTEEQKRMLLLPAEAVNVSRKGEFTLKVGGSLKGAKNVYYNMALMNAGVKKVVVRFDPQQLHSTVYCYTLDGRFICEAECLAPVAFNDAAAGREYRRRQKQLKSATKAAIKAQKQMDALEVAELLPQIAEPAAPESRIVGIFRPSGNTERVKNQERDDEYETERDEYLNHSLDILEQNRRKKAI

B1: Mu-N0 transposon end (control) (dsDNA)
DNA 1: GTTTTCGCATTTATCGTGAAACGCTTTCGCGTTTTTCGTGCGCCGCTTCA
DNA 2: CTAGTGAAGCGGCGCACGAAAAACGCGAAAGCGTTTCACGATAAATGCGAAAAC
In the case of B1, the binding result with MuA transposase [1] is given as “binds”.

B2: AGAG barcode end (dsDNA)
DNA 1: B1 DNA 1 with G45A, C46G, T47A, T48G
DNA 2: B1 DNA 2 with A7C, A8T, G9C, C10T
On to B2, for which the binding result with MuA transposase [2] is “binds”.

B3: ACGC barcode end (dsDNA)
DNA 1: B1 DNA 1 with G45A, T47G, T48C
DNA 2: B1 DNA 2 with A7G, A8C, C10T
B3: the binding result with MuA transposase [2] was “binds”.

B4: CATG barcode end (dsDNA)
DNA 1: B1 DNA 1 with G45C, C46A, T48G
DNA 2: B1 DNA 2 with A7C, G9T, C10G
For B4, in the series with MuA transposase [2], the binding result is on record as “binds”.

B5: TTTC barcode end (dsDNA)
DNA 1: B1 DNA 1 with G45T, C46T, T48C
DNA 2: B1 DNA 2 with A7G, G9A, C10A
As to B5, the binding result in the series with MuA transposase [2] was “binds”.

B6: CGCA barcode end (dsDNA)
DNA 1: B1 DNA 1 with G45C, C46G, T47C, T48A
DNA 2: B1 DNA 2 with A7T, A8G, G9C, C10G
Take B6: in the series with MuA transposase [2], the binding result is given as “binds”.

B7: TACG barcode end (dsDNA)
DNA 1: B1 DNA 1 with G45T, C46A, T47C, T48G
DNA 2: B1 DNA 2 with A7C, A8G, G9T, C10A
Turning to B7, in the series with MuA transposase [2], the binding result is on record as “binds”.

B8: GTAC barcode end (dsDNA)
DNA 1: B1 DNA 1 with C46T, T47A, T48C
DNA 2: B1 DNA 2 with A7G, A8T, G9A
In the case of B8, the binding result with MuA transposase [2] is “binds”.

B9: TATA barcode end (dsDNA)
DNA 1: B1 DNA 1 with G45T, C46A, T48A
DNA 2: B1 DNA 2 with A7T, G9T, C10A
As for B9, in the series with MuA transposase [2], the binding result is given as “binds”.

B10: ACAT barcode end (dsDNA)
DNA 1: B1 DNA 1 with G45A, T47A
DNA 2: B1 DNA 2 with A8T, C10T
In the case of B10, the binding result with MuA transposase [2] was “binds”.

B11: GCGT barcode end (dsDNA)
DNA 1: B1 DNA 1 with T47G
DNA 2: B1 DNA 2 with A8C
Consider B11, for which the binding result with MuA transposase [2] is reported as “binds”.

B12: GGGA barcode end (dsDNA)
DNA 1: B1 DNA 1 with C46G, T47G, T48A
DNA 2: B1 DNA 2 with A7T, A8C, G9C
For the molecule B12, the binding result with MuA transposase [2] is “binds”.

B13: CTCT barcode end (dsDNA)
DNA 1: B1 DNA 1 with G45C, C46T, T47C
DNA 2: B1 DNA 2 with A8G, G9A, C10G
B13: the binding result in the series with MuA transposase [2] is given as “binds”.

B14: Tn-SEQ2.1 (dsDNA)
DNA 1: GTTTTCGCTCTTCCGATCTAACGCTTTCGCGTTTTTCGTGCGCCGCTTCA
DNA 2: CTAGTGAAGCGGCGCACGAAAAACGCGAAAGCGTTAGATCGGAAGAGCGAAAAC
B14: the binding result with MuA transposase [3] is listed as “binds”.

B15: Tn-SEQ1 (dsDNA)
DNA 1: GTTTTAGATGTGTATAAGAGACAGTTTCGCGTTTTTCGTGCGCCGCTTCA
DNA 2: CTAGTGAAGCGGCGCACGAAAAACGCGAAACTGTCTCTTATACACATCTAAAAC
In the case of B15, in the series with MuA transposase [4], the binding result is “binds”.

B16: Tn-SEQ2.2 (dsDNA)
DNA 1: GTTTTCGCATTTATCGTGAAACGCTTTCGCGTTTTTGCTCTTCCGATCTA
DNA 2: CTAGTAGATCGGAAGAGCAAAAACGCGAAAGCGTTTCACGATAAATGCGAAAAC
Regarding B16, the binding result in the series with MuA transposase [5] is “binds”.

The values above are taken from patent US20220396788, “RECOMBINANT TRANSPOSON ENDS” (THERMO FISHER SCIENTIFIC BALTICS, UAB, published 2022).
